US20150018228A1, “ENZYME DETECTION BY MICROFLUIDICS” (priority 2011, published 2015)

Experiments:
Format in all cases: biochemical, Plasmodium falciparum
[1] = test system: pfTopI; experiment: Cleavage-ligation assay with radio-labeled DNA substrates in absence or presence of camptothecin; conditions: 60 μM CPT, duplex OL62/OL63, 20 min at 37° C.
Method: Detection of PfTopI activity using radio-labeled DNA substrates: DNA cleavage reactions were carried out by incubating 20 nM duplex OL37/OL56 or OL62/OL63 with 500 fmol of pfTopI or hTopI in the absence or presence of 60 μM CPT for 20 min at 37° C. in 10 mM Tris (pH 7.5), 5 mM MgCl2, and 5 mM CaCl2 in a final volume of 20 μl. After the 20 min incubation, reactions were stopped with 0.5% (w/v) SDS. Samples were subjected to ethanol precipitation, resuspended in 10 μl of 1 mg/ml trypsin and incubated at 37° C. for 30 min. Reaction products were analyzed by denaturing polyacrylamide gel electrophoresis following standard procedures, and radioactive bands were visualized by PhosphorImaging.

[2] = test system: pfTopI; experiment: RCA-based biosensor (REEAD) circularization of oligonucleotide substrates by purified pfTopI
Method: As shown in FIG. 1A and FIG. 4, in contrast to its human counterpart, pfTopI is able to cleave close to DNA ends with high efficiency. […] To address this possibility, purified pfTopI was incubated with each of the substrates Su2-Su6 (FIG. 1B) and the products analysed using the RCA based detection system as schematically outlined in FIG. 1C. The sequence of the substrates Su4, Su5, and Su6 was modified to match the sequence that was cleaved with high efficiency in substrate XX.
Based on this, five different oligonucleotides with potential of being circularized specifically by pfTopI cleavage-ligation were designed. These oligonucleotides (PfTop1(S1-S5)) all folded into a hairpin structure containing a probe- and a primer-annealing sequence in the single-stranded loop and a potential pfTopI recognizable sequence at the end of the double-stranded stem region (FIG. 1b). […] To allow comparative quantification of signals generated in different reactions, a known concentration of control-circle with a unique probe-annealing sequence was added to the reaction mixtures before RCA and resulting RCPs visualized using a green-fluorescent probe. […]
(§1) The 5′-amine-conjugated primer was coupled to CodeLink Activated Slides (SurModics) according to the manufacturer's description. […] Quantification of pfTopI specific signals was performed as previously described^1.

[3] = test system: pfTopI; experiment: REEAD in nuclear extract from HEK293T cells with or without spike-in pfTopI; conditions: signals only with spike-in pfTopI
Method: The use of Su2 for detecting pfTopI activity in human cell extracts in the RCA-based biosensor setup was also verified. […] As a control for successful RCA and probe annealing a circularized control circle was added to each sample before annealing to the primer coated slide. […] As expected, comparative levels of green and blue spots corresponding to RCPs from […] and control circles, respectively, could be observed in both samples (FIG. 2A).
The specificity of pfTopI(S1) for pfTopI in crude biological samples was addressed using nuclear extract from human HEK293T cells with or without spike-in pfTopI as a model for Plasmodium infection. […] Consequently, green signals observed in FIG. 22b, right panel, originated from hTopI and pfTopI activity in combination where pfTopI(S1) and S(TopI) competed for reaction by pfTopI at the expense of sensitivity.
Human embryonic kidney HEK293T cells were cultured in Dulbecco's Modified Eagle Medium (GIBCO) supplemented with 10% fetal bovine serum (FBS) (GIBCO), 100 units/mL penicillin and […] streptomycin (Invitrogen). Cells were incubated in a humidified incubator (5% CO2/95% air atmosphere at 37° C.). […]
as §1

[4] = test system: pfTopI; experiment: REEAD with HRP-mediated colorimetric readout, purified pfTopI; conditions: purified pfTopI circularizing S1
Source text: To investigate if the Plasmodium-specific REEAD could be adapted to simple colorimetric readout, suitable for low-resource settings without compromising sensitivity, an additional enzymatic step was introduced to the assay by coupling streptavidin-fused HRP to biotinylated RCPs as described by Yan, J. et al. An on-nanoparticle rolling-circle amplification platform for ultrasensitive protein detection in biological fluids. Small 6, 2520-2525 (2010). HRP oxidizes colorless tetramethylbenzidine to a blue-colored form, detectable to the naked eye or by spectrophotometric measurements. This, of course, is at the expense of the possibility of multiplexing since RCPs originating from different circles cannot be distinguished. […] This, however, imposed the advantage of preventing competition between S(TopI) and pfTopI(S1) for pfTopI, as discussed above. The two readout formats were compared by reacting pfTopI(S1) with increasing dilutions of extracts from blood sample #2 followed by microscopic visualization of RCPs or by spectrophotometric measurement of HRP substrate conversion. As evident from FIG. 23 colorimetric readout increased sensitivity of REEAD by a factor two compared to microscopic readout. […]

## CC[C@@]1(O)C(=O)OCc2c1cc1n(c2=O)Cc2cc3ccccc3nc2-1 [camptothecin]
[1]
  effect on ligation product formation by pfTopI: ligation product is only observed upon incubation of the substrate with pfTopI in the absence of camptothecin

B1: pfTopI(S1): hairpin oligonucleotide sensor circularized by pfTopI, SEQ ID NO: 8 (nucleic acid)
chain: TCTAGAAAGTATAGGAACTTCGAACGACTCAGAATGACTGTGAAGATCGCTTATCCTCAATGCACATGTTTGGCTCCCATTCTGAGTCGTTCGAAGTTCCTATACTTT
modifications: chemistry not fully specified
[2]; purified pfTopI, compared among the tested substrates
  circularization efficiency by pfTopI, substrate signals relative to control circle signals: the most efficient sensor of pfTopI
[3]
  specificity for pfTopI in crude human cell extract: specificity of pfTopI(S1) for pfTopI even on a background of human nucleus content
[4]; FIG. 27
  detection of pfTopI, spectrophotometric measurement of HRP reaction: 2 aM
[4]; data not shown
  detection of pfTopI, direct visual detection of HRP reaction: 200 aM

B2: S(TopI): self-folding oligonucleotide substrate for human topoisomerase I, SEQ ID NO: 25 (nucleic acid)
chain: AGAAAAATTTTTAAAAAAACTGTGAAGATCGCTTATTTTTTTAAAAATTTTTCTAAGTCTTTTAGATCCCTCAATGCTGCTGCTGTACTACGATCTAAAAGACTTAGA
modifications: listed as DNA, chemistry not fully specified
[2]; purified recombinant pfTopI, RCA and fluorescent probe readout
  circularization (conversion to closed circles) by pfTopI: circularizes S(TopI)
